# Biological target: T1, Bromodomain containing protein 4 (BRD4) (human (endogenous in hSAECs), UniProt O60885 1-1362)
# T1 construct: BRD4, endogenous in hSAECs; detected in situ with rabbit BRD4 Ab (Cell Signaling 13440); also called BRD4 CRC; source: endogenous, hSAECs (fixed cells, mock or RSV infected)
# Assay: proximity ligation; Duolink in situ PLA, mouse anti-IRF1 and rabbit anti-BRD4 Abs, fixed hSAECs, RSV infected (MOI 1, 24 h), with solvent (DMSO) or BRD4i ZL0454 (complex unaffected by BRD4i)
# Settings: partners not purified
binder,measurement,value
"interferon regulatory factor 1 (IRF1) (natural protein, human (endogenous in hSAECs), UniProt P10914 1-325, looked up, IRF1, endogenous in telomerase-immortalized human small airway epithelial cells (hSAECs); detected in situ with mouse IRF1 Ab (R&D MAB4830-SO); source: endogenous, hSAECs (fixed cells, mock or RSV infected)) MPITRMRMRPWLEMQINSNQIPGLIWINKEEMIFQIPWKHAAKHGWDINKDACLFRSWAIHTGRYKAGEKEPDPKTWKANFRCAMNSLPDIEEVKDQSRNKGSSAVRVYRMLPPLTKNQRKERKSKSSRDAKSKAKRKSCGDSSPDTFSDGLSSSTLPDDHSSYTVPGYMQDLEVEQALTPALSPCAVSSTLPDWHIPVEVVPDSTSDLYNFQVSPMPSTSEATTDEDEEGKLPEDIMKLLEQSEWQPTNVDGKGYLLNEPGVQPTSVYGDFSCKEEPEIDSPGGDIGLSLQRVFTDLKNMDATWLDSLLTPVRLPSIQAIPCAP","fold increase of PLA complex, RSV against mock",25 fold
